For series [1], the system named is MS2 coat protein. Put plainly: apparent KD of MS2 coat protein, switch OFF state (with FMN for OFF switches, without FMN for ON switches); designed switch direction (-1 OFF switch, 1 ON switch): -1; higher = weaker reporter binding. Particulars: FMN input: 0 or 200 uM; Eterna round: R93 (includes R88 designs). Summed up: (§1)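 On-chip transcription from Illumina sequencing clusters produced the designed RNA switches. These were titrated with SNAP-549-labelled MS2 coat protein (twofold steps, 0.7 or 1.5 nM to 3 µM) in 100 mM Tris-HCl pH 7.5, 80 mM KCl, 4 mM MgCl2, with or without constant ligand. The apparent KD given is the per-design median of normalised cluster binding-curve fits.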

Series [2] deals with MS2 coat protein. Nature of the series: apparent KD of MS2 coat protein, switch ON state; designed switch direction (-1 OFF switch, 1 ON switch): -1; higher = weaker reporter binding. Particulars: FMN input: 0 or 200 uM; Eterna round: R93 (includes R88 designs). Summed up:
as §1

From the supplement of paper PMC9170038 come the findings set out here.

With “AGCUAGUCAGGAUAUACGAAAAUGUCAGAAGACGUAAGGGAACAUGAGGAUCACCCAUGUAGAAGGGACUAGCA [Diamond 41]”, the “apparent KD of MS2 coat protein” value is 108 nM in the series with MS2 coat protein [1] and 30.7 nM with MS2 coat protein [2].
As to “AGCUAGUCAGGAUAUACGAACAAGUCAAAAGACGAGAACGGACAUGAGGAUCACCCAUGUAGAAGGGACUAGCA [Diamond 7]”, the “apparent KD of MS2 coat protein” value in the series with MS2 coat protein [1] was determined as 13.6 nM; with MS2 coat protein [2], 16.1 nM.
With “AGCUAGUCAGGAUAUACGAACAUGUCAGGAGACGUGAAGGGACAUGAGGAUCACCCAUGUAGAAGGGACUAGCG [74%, Web mod - With 3 more G's]”, the “apparent KD of MS2 coat protein” value in the series on MS2 coat protein [1] was found to be 128 nM; in the series with MS2 coat protein [2] it was 37.2 nM.
On the same counts, the results for “AGCUAGUCAGGAUAUACGAACAUGUCGAAAGACGUGAAGGGACAUGAGGAUCACCCAUGUAGAAGGGACUAGCA [Mat - Exclusion 2 - JL mod - D1]” are 120 nM and 34.2 nM.
As for “AGGAAACAUGAGGAUCACCCAUGUGAGGAUAUAGGAAAGAAAAGAAAAGAAAGAAGAAUUAGAAGGCACAAGAA [Djet]”, the “apparent KD of MS2 coat protein” value with MS2 coat protein [1] turned out to be 14.9 nM; in the series with MS2 coat protein [2], 20.5 nM.
On the same counts, the results for “AGGAAACAUGAGGAUCACCCAUGUGAGGAUAUGAACGAAAAUAAAUAAAAAUAAAAGUUCAGAAGGUACAAAAA [66%, Wbt, 5]” are 36.8 nM and 23.6 nM.
Turning to “AGGAAACAUGAGGAUCACCCAUGUGAGGAUAUUCAAAAGAAAAGAAAAGAAAGAAGAAGAAGAAGGCACAAGAA [Khayu]”, the “apparent KD of MS2 coat protein” value in the series with MS2 coat protein [1] turned out to be 33.5 nM; in the series with MS2 coat protein [2], 32.8 nM.
On the same counts, the results for “AGGAAACAUGAGGAUCACCCAUGUGAGGAUAUUGAAAAGAAAAGAAAAGAAAGAAGAACAAGAAGGCACAAGAA [Tiu]” are 31.5 nM and 29.6 nM.
Take “AGGAAACAUGAGGAUCACCCAUGUUAGGAUAUGAACGAAAUAAAAUAAAAAUAAAAGUUCAGAAGGGACAAAAA [Mat - Exclusion 1 - Eli mod - D20]”: the “apparent KD of MS2 coat protein” value came out at 49.6 nM in the series on MS2 coat protein [1] and 24.9 nM with MS2 coat protein [2].
Take “AGGGUACAUGAGGAUCACCCAUGUUAGGAUAUUGAAAAGAAAAGAAAAGAAAGAAGAACAAGAAGGGACAAGAA [Userkare]”: the “apparent KD of MS2 coat protein” value was 45.7 nM with MS2 coat protein [1] and 56.5 nM in the series on MS2 coat protein [2].
On the same counts, the results for “AGUAAACAUGAGGAUCACCCAUGUGAGGAUAUCGAAAAGAAAAGAAAAGAAAGAAGAAUGAGAAGGCACAAGAA [Huni]” are 37 nM and 33.3 nM.
For “AGUAACCAAGGAUAUACAAAACCUGUGAUCGAAUGGAUUUUACAUGAGGAUCACCCAUGUAGAAGGUGGAAAGG [Xeedce]”, in that order: 35 nM and 22.7 nM.
Consider “AGUAGAUCAGGAUAUACAUAAAUGAUAAUUAUGUAACUUUUACAUGAGGAUCACCCAUGUAGAAGGGAUCUACA [Ex2 Design 130: Not so Super Stable 18]”, for which the figures for the “apparent KD of MS2 coat protein” value in the series on MS2 coat protein [1] and in the series on MS2 coat protein [2] were 15.8 nM and 14.8 nM, respectively.
On the same counts, the results for “AGUAGUACAGGAUAUACAUGAGGAUCACCCAUGUGAAAAAUAAGUGGCGUACCACAAAGUAGAAGGGUACUACA [Mat - Exclusion 3 - JL mod - D37]” are 141 nM and 29.9 nM.
With “AGUAUGCGAGGAUAUACAUGAGGAUCACCCAUGUGAGAGAUAAAAGUGAGAAAGACAUGUAGAAGGCGCGUACA [JL Lego Mod 24]”, the “apparent KD of MS2 coat protein” value in the series on MS2 coat protein [1] was 27 nM; in the series with MS2 coat protein [2], 38.9 nM.
Consider “AGUCAUACAGGAUAUACAUGAGGAUCACCCAUGUAAAUCCUAAAAAAAUGAUCCUCAUGUAGAAGGGUAUGACA [EX3 221: Super Stable 21]”, for which the “apparent KD of MS2 coat protein” value was 14.4 nM with MS2 coat protein [1] and 16.8 nM with MS2 coat protein [2].
Consider “AGUCAUACAGGAUAUACAUGAGGAUCACCCAUGUAUAUCCAAAAAAAAAAAUCCUCAUGUAGAAGGGUAUGACA [EX3 205: Super Stable 5]”, for which the results for the “apparent KD of MS2 coat protein” value in the series on MS2 coat protein [1] and in the series on MS2 coat protein [2] were 18.7 nM and 17.1 nM, respectively.
For “AGUCGGCGAGGAUAUACAUGAGGAUCACCCAUGUGAGAGAAUAUAGUGAGUUAGACAAGUAGAAGGCGCUGACA [JL Lego Mod 11]”, in that order: 135 nM and 43.2 nM.
On the same counts, the results for “AGUCGGCGAGGAUAUACAUGAGGAUCACCCAUGUGAGAGCUAAAAGUGAGUCAGAAAAGUAGAAGGCGCUGACA [JL Lego Mod 6]” are 94.1 nM and 96.5 nM.
In the case of “AGUGAGUCAGGAUAUGACUGAAGAAUAAAAGAAAUAACAAGUCAGAAGGGACAUGAGGAUCACCCAUGUACACA [May 59]”, the results for the “apparent KD of MS2 coat protein” value in the series with MS2 coat protein [1] and in the series on MS2 coat protein [2] were 20.7 nM and 30.9 nM, respectively.
On the same counts, the results for “AGUGAGUGAGGAUAUGAGUGAACAACAAAACAAAUAACGACUCAGAAGGCACAUGAGGAUCACCCAUGUACACA [May 68]” are 22.3 nM and 24 nM.
For “AGUUAGUCAGGAUAUGCGUGAAGAAUAAAAGAAAUAACAACGCAGAAGGGACAUGAGGAUCACCCAUGUAAACA [May 55]”, in that order: 37.3 nM and 34.2 nM.
On the same counts, the results for “AGUUGGCGAGGAUAUACAUGAGGAUCACCCAUGUGAAAAAAGGGCUCGAAAGAGAAAAGUAGAAGGCGCUGACA [73%, Moding Norbert Elias, 7]” are 98.4 nM and 24.8 nM.
Consider “AGUUGGCGAGGAUAUACAUGAGGAUCACCCAUGUGAAAUCGCGAAAAAAUAGGGAAAAGUAGAAGGCGCUGACA [73%, Moding Norbert Elias, 18]”, for which the “apparent KD of MS2 coat protein” value in the series with MS2 coat protein [1] turned out to be 21 nM; in the series on MS2 coat protein [2], 11 nM.
For “AGUUGGCGAGGAUAUACAUGAGGAUCACCCAUGUGAGAGAUAAAAGUGAGAAAGAAAAGUAGAAGGCGCUAACA [JL Lego Mod 20]”, in that order: 262 nM and 45.6 nM.
In the case of “AGUUGGCGAGGAUAUACAUGAGGAUCACCCAUGUGAGAGUAAAAAGUGAGAAAGAGAAGUAGAAGGCGCUAACA [Ruby 53]”, the “apparent KD of MS2 coat protein” value with MS2 coat protein [1] came to 167 nM; in the series on MS2 coat protein [2], 37.4 nM.
With “AUAAGUCGAGGAUAUACGAAAUGCUAGCGAAAGCUAGCAUAACAUGAGGAUCACCCAUGUAGAAGGCGACAAUA [Tetraloop hairpin BlockHead... 61% 3]”, the “apparent KD of MS2 coat protein” value in the series with MS2 coat protein [1] came to 20.6 nM; in the series with MS2 coat protein [2] it was 22.9 nM.
For “AUAGGGCUAGGAUAUACAUGAGGAUCACCCAUGUAAACAGAUAGAUCAAGGUAAACGAGUAGAAGGAGCAAUAA [JR_Exc003_Sub210]”, in that order: 18.8 nM and 19.5 nM.
For “AUAGUACAUGAGGAUCACCCAUGUCAGGAUAUUCGAAAUGAAAAAAAAAAAAAGUGAAGGAGAAGGGACUAUAA [EX1 Malc#12]”, in that order: 20.1 nM and 21.5 nM.
On the same counts, the results for “AUAGUACAUGAGGAUCACCCAUGUCAGGAUAUUCGAUAUGAAAAAAAAAAAAAGUUAAGGAGAAGGGACUAUAA [EX1 Malc#13]” are 26.1 nM and 26.1 nM.
“AUAGUACAUGAGGAUCACCCAUGUCAGGAUAUUGGAUAUGACAAAAAAAAAAAGUUAACGAGAAGGGACUAUAA [EX1 Malc#15]”: the “apparent KD of MS2 coat protein” value turned out to be 36.6 nM in the series with MS2 coat protein [1] and 31.2 nM with MS2 coat protein [2].
For “AUCAACCUAGGAUAUACAUGAGGAUCACCCAUGUACAGAUACAACAAGGGAAACACACGUAGAAGGAGGAAGAU [JR_Exc003_Sub1205]”, in that order: 52.1 nM and 24.4 nM.
For the sequence “AUCAUGUAAGGAUAUACAAGAAAAGAAAAGAAAGAAAAGAAGUAGAAGGUACAUGAGGAUCACCCAUGUAAGAA [EteRNA is fun!]”, the “apparent KD of MS2 coat protein” value with MS2 coat protein [1] stood at 31.5 nM; in the series with MS2 coat protein [2], 61 nM.
Consider “AUCAUGUAAGGAUAUAUAAGAAAAGAAAAGAAAGAAAAGAAAUAGAAGGUACAUGAGGAUCACCCAUGUAAGAA [EteRNA is fun!]”, for which the “apparent KD of MS2 coat protein” value was 15.6 nM with MS2 coat protein [1] and 30.8 nM in the series with MS2 coat protein [2].
“AUCAUGUAAGGAUAUGACUACAUAAAAAAAAAAAAAUGUAGUCAGAAGGUACAUGAGGAUCACCCAUGUACAAA [Mod of Brourd]”: the figures for the “apparent KD of MS2 coat protein” value in the series with MS2 coat protein [1] and in the series with MS2 coat protein [2] were 29.4 nM and 27.6 nM, respectively.
For “AUCUCGUCAGGAUAUGACUACAUAAAAAAAAAAAAAUGUAGUCAGAAGGGACAUGAGGAUCACCCAUGUACCAA [HSL_Exclusion 4 64% 3]”, in that order: 22.8 nM and 21.9 nM.
For “AUCUUGUCAGGAUAUGACUACAUAAAAAAAAAAAAAUGUAGUCAGAAGGGACAUGAGGAUCACCCAUGUACUAA [hsl_exclusion4]”, in that order: 62.4 nM and 41.9 nM.
On the same counts, the results for “AUGGUAGGAGGAUAUACAUAGAUACAGAUACAUGUAGACGUACAUGAGGAUCACCCAUGUAGAAGGCCUAUAAA [Mat - Same state - Mayanna Mod - D150]” are 82.3 nM and 97.9 nM.
On to “CACGUACAUGAGGAUCACCCAUGUUAGGAUAUGCCGGGUAAGAGAAAACUAAAAACCCGUAGAAGGGACGAAAC [Bilbo Confounded 13 - Jieux - Exclusion 1]”, for which the “apparent KD of MS2 coat protein” value in the series with MS2 coat protein [1] was 28.6 nM; with MS2 coat protein [2] it was 23.3 nM.
On the same counts, the results for “CAGUACUGAGGAUAUACAUGAGGAUCACCCAUGUGUAAAAGCUAGGAAACUAGCAAAUGUAGAAGGCAGUACUG [Ex3: 816]” are 36.5 nM and 13.8 nM.
